In patent US20210380703A1 (RIGEL PHARMACEUTICALS, published 2021) one finds optical density data, which are given here for 18 molecules.

One experiment deals with T1, human ACVR2A (human, UniProt P27037 20-135, limits assumed).
T1 construct: coated antigen of the initial ELISA; also called activin receptor, type II A
As to the kind of experiment: ELISA. The essentials:
(§1)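 ELISA measured binding of ACVR2A-specific monoclonal antibodies to human and mouse ACVR2A. Biotinylated goat anti-human kappa light chain served as positive control and human Fc as negative control.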
(ELISA stands for enzyme-linked immunosorbent assay.)

Another experiment concerns the target T2, mouse ACVR2A (mouse, UniProt P27038 20-135, limits assumed).
T2 construct: coated antigen of the initial ELISA
Nature of the experiment: ELISA. In outline:
as §1

Experiment [1] deals with T3, biotinylated goat anti-human kappa light chain.
T3 construct: positive control of the ELISA
As to the kind of experiment: ELISA, positive control. In outline: as §1
Also: test concentration or dose not given here.

T1 sequence (P27037 20-135 limits assumed): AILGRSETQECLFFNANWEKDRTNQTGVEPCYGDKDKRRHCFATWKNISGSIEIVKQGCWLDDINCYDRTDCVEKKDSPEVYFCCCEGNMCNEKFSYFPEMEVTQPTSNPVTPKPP
T2 sequence (P27038 20-135 limits assumed): as the sequence (P27037 20-135 limits assumed) above, with K20R, V73I counted along it

B1: 369_A07 (antibody, V domains shown)
VH: EVQLLESGGGLVQPGGSLRLSCAASGFTFSSYSMNWVRQAPGKGLEWVAGINYNGGYKGYADSVKGRFTISRDNSKNTLYLQMNSLRAEDTAVYYCARGANWHDTALDYWGQGTLVTVSS
VL: DIQMTQSPSSLSASVGDRVTITCRASQSILSYLNWYQQKPGKAPKLVIYAATSRASGVPSRFSGSGSGTDFTLTISSLQPEDFATYYCQQSYESPLTFGGGTKVEIK
notes: Group III
Regarding B1, the optical density with human ACVR2A was found to be 3.55 OD; with mouse ACVR2A it was 3.56 OD; in experiment [1] it was 3.42 OD.

B2: 370_B11 (antibody, V domains shown)
VH: EVQLLESGGGLVQPGGSLRLSCAASGFTFDSYSMNWVRQAPGKGLEWVSGINYNSGYTSYADSVKGRFTISRDNSKNTLYLQMNSLRAEDTAVYYCARGANWHDTHLDYWGQGTLVTVSS
VL: DIQMTQSPSSLSASVGDRVTITCRASQSILSYLNWYQQKPGKAPKLVIYAATSRHSGVPSRFSGSGSGTDFTLTISSLQPEDFATYYCQQGYDLPLTFGGGTKVEIK
notes: Group III
Regarding B2, the optical density with human ACVR2A was determined as 2.08 OD; in the experiment with mouse ACVR2A it was 2.45 OD; in experiment [1], 3.69 OD.

B3: 369_D03 (antibody, V domains shown)
VH: EVQLLESGGGLVQPGGSLRLSCAASGFTFSSYSMNWVRQAPGKGLEWVSGINYNGGYTSYADSVKGRFTISRDNSKNTLYLQMNSLRAEDTAVYYCARGANWHDTHLDYWGQGTLVTVSS
VL: DIQMTQSPSSLSASVGDRVTITCRASQSILTYLNWYQQKPGKAPKLVIYAATSRASGVPSRFSGSGSGTDFTLTISSLQPEDFATYYCQQSYENPLTFGGGTKVEIK
notes: Group III
For B3, the results for the optical density (in the experiment with human ACVR2A; with mouse ACVR2A; in experiment [1]) were 3.28 OD, 3.55 OD and 3.61 OD, respectively.

B4: 369_G08 (antibody, V domains shown)
VH: EVQLLESGGGLVQPGGSLRLSCAASGFTFDSYSMNWVRQAPGKGLEWVSSINYNGGYKGYADSVKGRFTISRDNSKNTLYLQMNSLRAEDTAVYYCARGANWHDTHLDYWGQGTLVTVSS
VL: not shown
notes: Group III
On to B4, for which the figures for the optical density (with human ACVR2A; with mouse ACVR2A; in experiment [1]) were 3.3 OD, 3.49 OD and 3.58 OD, respectively.

B5: 369_B05 (antibody, V domains shown)
VH: EVQLLESGGGLVQPGGSLRLSCAASGFTFDSYSMNWVRQAPGKGLEWVSGINYNGGYKSYADSVKGRFTISRDNSKNTLYLQMNSLRAEDTAVYYCARGANWHDTHLDYWGQGTLVTVSS
VL: DIQMTQSPSSLSASVGDRVTITCRASQSIISYLNWYQQKPGKAPKLLIYAATSLASGVPSRFSGSGSGTDFTLTISSLQPEDFATYYCQQSYDTPLTFGGGTKVEIK
notes: Group III
Take B5: the values for the optical density (in the experiment with human ACVR2A; with mouse ACVR2A; in experiment [1]) were 2.78 OD, 3.06 OD and 3.44 OD, respectively.

B6: 370_B12 (antibody, V domains shown)
VH: EVQLLESGGGLVQPGGSLRLSCAASGFTFSDYSMNWVRQAPGKGLEWVSGINYNGGYKGYADSVKGRFTISRDNSKNTLYLQMNSLRAEDTAVYYCARGANWHDTALDYWGQGTLVTVSS
VL: DIQMTQSPSSLSASVGDRVTITCRASQSILSYVNWYQQKPGKAPKLVIYATTSRASGVPSRFSGSGSGTDFTLTISSLQPEDFATYYCQQSYETPLTFGGGTKVEIK
notes: Group III
For B6, the optical density with human ACVR2A came out at 2.92 OD; with mouse ACVR2A it was 3.08 OD; in experiment [1], 3.56 OD.

B7: 370_B03 (antibody, V domains shown)
VH: EVQLLESGGGLVQPGGSLRLSCAASGFTFSSYSMNWVRQAPGKGLEWVANINYNGGYTGYADSVKGRFTISRDNSKNTLYLQMNSLRAEDTAVYYCARGANWHDTALDYWGQGTLVTVSS
VL: DIQMTQSPSSLSASVGDRVTITCRASQSILSYLNWYQQKPGKAPKLVIYAATSRASGVPSRFSGSGSGTDFTLTISSLQPEDFATYYCQQSYNNPLTFGGGTKVEIK
notes: Group III
B7: the optical density with human ACVR2A was found to be 3.71 OD; with mouse ACVR2A, 3.57 OD; in experiment [1] it was 3.61 OD.

B8: 370_A02 (antibody, V domains shown)
VH: EVQLLESGGGLVQPGGSLRLSCAASGFTFDSYGMNWVRQAPGKGLEWVAGINYNGGYTGYADSVKGRFTISRDNSKNTLYLQMNSLRAEDTAVYYCARGANWHDTALDYWGQGTLVTVSS
VL: DIQMTQSPSSLSASVGDRVTITCRASQSIVTYLNWYQQKPGKAPKLVIYAATSRASGVPSRFSGSGSGTDFTLTISSLQPEDFATYYCQQSYDSPLTFGGGTKVEIK
notes: Group III
With B8, the optical density in the experiment with human ACVR2A was determined as 2.9 OD; with mouse ACVR2A it was 2.91 OD; in experiment [1] it was 3.62 OD.

B9: 370_H07 (antibody, V domains shown)
VH: EVQLLESGGGLVQPGGSLRLSCAASGFTFSSYSMNWVRQAPGKGLEWVAGINYNGGYKSYADSVKGRFTISRDNSKNTLYLQMNSLRAEDTAVYYCARGANWHDTALDYWGQGTLVTVSS
VL: DIQMTQSPSSLSASVGDRVTITCRASQSILSYLNWYQQKPGKAPKLLIYAATSLASGVPSRFSGSGSGTDFTLTISSLQPEDFATYYCQQSDSSPLTFGGGTKVEIK
notes: Group III
Turning to B9, the optical density came out at 3 OD in the experiment with human ACVR2A, 3.25 OD in the experiment with mouse ACVR2A and 3.51 OD in experiment [1].

B10: 369_D09 (antibody, V domains shown)
VH: EVQLLESGGGLVQPGGSLRLSCAASGFTFSDYGMNWVRQAPGKGLEWVSNINYNGGYTSYADSVKGRFTISRDNSKNTLYLQMNSLRAEDTAVYYCARGANWHDTALDYWGQGTLVTVSS
VL: DIQMTQSPSSLSASVGDRVTITCRASQSILTYLNWYQQKPGKAPKLLIYAATSRASGVPSRFSGSGSGTDFTLTISSLQPEDFATYYCQQSYDSPLTFGGGTKVEIK
notes: Group III
As to B10, the optical density with human ACVR2A was 3.3 OD; in the experiment with mouse ACVR2A, 3.05 OD; in experiment [1], 3.45 OD.

B11: 369_C05 (antibody, V domains shown)
VH: EVQLLESGGGLVQPGGSLRLSCAASGFTFDSYSMNWVRQAPGKGLEWVAGINYNGGYTSYADSVKGRFTISRDNSKNTLYLQMNSLRAEDTAVYYCARGANWHDTALDYWGQGTLVTVSS
VL: DIQMTQSPSSLSASVGDRVTITCRASQSISSYVNWYQQKPGKAPKLVIYATTSRHSGVPSRFSGSGSGTDFTLTISSLQPEDFATYYCQQSYNSPLTFGGGTKVEIK
notes: Group III
B11: the optical density in the experiment with human ACVR2A stood at 2.54 OD; in the experiment with mouse ACVR2A it was 2.72 OD; in experiment [1] it was 3.02 OD.

B12: 370_D01 (antibody, V domains shown)
VH: EVQLLESGGGLVQPGGSLRLSCAASGFTFSSYSMNWVRQAPGKGLEWVSSINYNGGYTGYADSVKGRFTISRDNSKNTLYLQMNSLRAEDTAVYYCARGANWHDTALDYWGQGTLVTVSS
VL: DIQMTQSPSSLSASVGDRVTITCRASQSILSYLNWYQQKPGKAPKLLIYAATSRHSGVPSRFSGSGSGTDFTLTISSLQPEDFATYYCQQSYNTPLTFGGGTKVEIK
notes: Group III
Take B12: the optical density in the experiment with human ACVR2A is 3.14 OD; in the experiment with mouse ACVR2A, 3.17 OD; in experiment [1] it was 3.66 OD.

B13: 371_A10 (antibody, V domains shown)
VH: EVQLLESGGGLVQPGGSLRLSCAASGFTFDDYSMNWVRQAPGKGLEWVSGINYNGGYKGYADSVKGRFTISRDNSKNTLYLQMNSLRAEDTAVYYCARGANWHDTALDYWGQGTLVTVSS
VL: DIQMTQSPSSLSASVGDRVTITCRASQSIVSYLNWYQQKPGKAPKLVIYAATSRASGVPSRFSGSGSGTDFTLTISSLQPEDFATYYCQQSYENPLTFGGGTKVEIK
notes: Group III
Take B13: the optical density in the experiment with human ACVR2A is 2.81 OD; in the experiment with mouse ACVR2A, 2.78 OD; in experiment [1] it was 3.48 OD.

B14: 370_H02 (antibody, V domains shown)
VH: EVQLLESGGGLVQPGGSLRLSCAASGFTFDSYSMNWVRQAPGKGLEWVSGINYNSGYTSYADSVKGRFTISRDNSKNTLYLQMNSLRAEDTAVYYCARGANWHDTHLDYWGQGTLVTVSS
VL: DIQMTQSPSSLSASVGDRVTITCRASQSILTYLNWYQQKPGKAPKLLIYAATSRASGVPSRFSGSGSGTDFTLTISSLQPEDFATYYCQQSYESPLTFGGGTKVEIK
notes: Group III
For the molecule B14, the optical density came to 3.3 OD with human ACVR2A, 3.39 OD with mouse ACVR2A and 3.67 OD in experiment [1].

B15: 369_E06 (antibody, V domains shown)
VH: EVQLLESGGGLVQPGGSLRLSCAASGFTFSSYGMNWVRQAPGKGLEWVSGINYNGGYTSYADSVKGRFTISRDNSKNTLYLQMNSLRAEDTAVYYCARGANWHDTALDYWGQGTLVTVSS
VL: DIQMTQSPSSLSASVGDRVTITCRASQSIISYLNWYQQKPGKAPKLVIYAATSRHSGVPSRFSGSGSGTDFTLTISSLQPEDFATYYCQQSYDSPLTFGGGTKVEIK
notes: Group III
Consider B15, for which the values for the optical density (in the experiment with human ACVR2A; in the experiment with mouse ACVR2A; in experiment [1]) were 3.13 OD, 3.11 OD and 3.52 OD, respectively.

B16: 369_D07 (antibody, V domains shown)
VH: EVQLLESGGGLVQPGGSLRLSCAASGFTFSSYGMNWVRQAPGKGLEWVSGINYNGGYKSYADSVKGRFTISRDNSKNTLYLQMNSLRAEDTAVYYCARGANWHDTHLDYWGQGTLVTVSS
VL: DIQMTQSPSSLSASVGDRVTITCRASQSIVSYLNWYQQKPGKAPKLVIYAATSRASGVPSRFSGSGSGTDFTLTISSLQPEDFATYYCQQSYDLPLTFGGGTKVEIK
notes: Group III
Turning to B16, the optical density with human ACVR2A was 3.07 OD; with mouse ACVR2A, 2.91 OD; in experiment [1] it was 3.26 OD.

B17: 370_D05 (antibody, V domains shown)
VH: EVQLLESGGGLVQPGGSLRLSCAASGFTFDDYSMNWVRQAPGKGLEWVSNINYNGGYKGYADSVKGRFTISRDNSKNTLYLQMNSLRAEDTAVYYCARGANWHDTALDYWGQGTLVTVSS
VL: DIQMTQSPSSLSASVGDRVTITCRASQSIITYLNWYQQKPGKAPKLVIYAATSRHSGVPSRFSGSGSGTDFTLTISSLQPEDFATYYCQQSYDTPLTFGGGTKVEIK
notes: Group III
Turning to B17, the optical density with human ACVR2A was 2.98 OD; with mouse ACVR2A it was 3.12 OD; in experiment [1], 3.49 OD.

B18: 370_F03 (antibody, V domains shown)
VH: EVQLLESGGGLVQPGGSLRLSCAASGFTFSSYGMNWVRQAPGKGLEWVSSINYNSGYKSYADSVKGRFTISRDNSKNTLYLQMNSLRAEDTAVYYCARGANWHDTALDYWGQGTLVTVSS
VL: DIQMTQSPSSLSASVGDRVTITCRASQSILSYVNWYQQKPGKAPKLLIYAATSRASGVPSRFSGSGSGTDFTLTISSLQPEDFATYYCQQSYENPLTFGGGTKVEIK
notes: Group III
Take B18: the optical density with human ACVR2A was determined as 1.14 OD; with mouse ACVR2A, 1.25 OD; in experiment [1] it was 3.3 OD.
